The source of these data is the RNAGym collection of RNA variant scans (doi:10.7554/elife.90254).

Sequences and labels used below:
B1: LINE1-full (parent)
chain: UACGUAGGUGGUUUUCCCCUGAUAGUGCUAAGGGGGCCUGGAAGUUUGGACUGGGCAGAGCUCAACACAGCGUGGCAAAGUGGCUGUGGCUAGACUGCCUCUCUGGAUUCCUCGUCACUCAGCAGGGCAUCUCUGAGAGAAAUGCC

Variants of B1 are the subject of this data set. In words: self-cleavage, relative activity (ratio to wild type); higher = more cleavage; in vitro, sequencing; the parent is a self-cleaving ribozyme.
As to UACGUAGGCGGUUUUCCCCUGAUAGUGCUAAGGGGGCCUGGAAGUUUGGACUGGGCAGAGCUCAACACAGCGUGGCAAAGUAGCUGUGGCUAGACUGCCUCUCUGGAUUCCUCGUCACUCAGCAGGGCAUCUCUGAGAGAAAUGCC [U9C G82A], the self-cleavage came to 2.23. The same measure for UACGUAGGCGGUUUUCCCCUGAUAGUGCUAAGGGGGCCUGGAAGUUUGGACUGGGCAGAGCUCAACACAGCGUGGCAAAGCGGCUGUGGCUAGACUGCCUCUCUGGAUUCCUCGUCACUCAGCAGGGCAUCUCUGAGAGAAAUGCC [U9C U81C]: 1.21; for UACGUAGGCGGUUUUCCCCUGAUAGUGCUAAGGGGGCCUGGAAGUUUGGACUGGGCAGAGCUCAACACAGCGUGGCAAAGAGGCUGUGGCUAGACUGCCUCUCUGGAUUCCUCGUCACUCAGCAGGGCAUCUCUGAGAGAAAUGCC [U9C U81A]: 1.95. For the variant UACGUAGGCGGUUUUCCCCUGAUAGUGCUAAGGGGGCCUGGAAGUUUGGACUGGGCAGAGCUCAACACAGCGUGGCAAAGUGGCUGUGGCAAGACUGCCUCUCUGGAUUCCUCGUCACUCAGCAGGGCAUCUCUGAGAGAAAUGCC [U9C U91A], the self-cleavage is 0.7. To UACGUAGGCGGUUUUCCCCUGAUAGUGCUAAGGGGGCCUGGAAGUUUGGACUGGGCAGAGCUCAACACAGCGUGGCAAAGUGGCUGUGGCCAGACUGCCUCUCUGGAUUCCUCGUCACUCAGCAGGGCAUCUCUGAGAGAAAUGCC [U9C U91C] belongs 1.75; to UACGUAGGCGGUUUUCCCCUGAUAGUGCUAAGGGGGCCUGGAAGGUUGGACUGGGCAGAGCUCAACACAGCGUGGCAAAGUGGCUGUGGCUAGACUGCCUCUCUGGAUUCCUCGUCACUCAGCAGGGCAUCUCUGAGAGAAAUGCC [U9C U45G], 1.56. UACGUAGGCGGUUUUCCCCUGAUAGUGCUAAGGGGGCCUGGAAGUUUGGACUGGGCAGAGCUCAACACAGCGUGGCAAAGUGGCUGUGGCUAGACGGCCUCUCUGGAUUCCUCGUCACUCAGCAGGGCAUCUCUGAGAGAAAUGCC [U9C U96G]: the self-cleavage stood at 0. The same measure for UACGUAGGCGGUUUUCCCCUGAUAGUGCUAAGGGGGCCUGGAAGUUUGGACUGGGCAGAGCUCAACACAGCGUGGCAAAGUGGCUGUGGCUAGACUGCCUCUCUGGAUACCUCGUCACUCAGCAGGGCAUCUCUGAGAGAAAUGCC [U9C U109A]: 1.37; for UACGUAGGCGGUUUUCCCCUGAUAGUGCUAAGGGGGCCUGGAAGUUCGGACUGGGCAGAGCUCAACACAGCGUGGCAAAGUGGCUGUGGCUAGACUGCCUCUCUGGAUUCCUCGUCACUCAGCAGGGCAUCUCUGAGAGAAAUGCC [U9C U47C]: 1.45. The same measure for UACGUAGGCGGUUUUCCCCUGAUAGUGCUAAGGGGGCCUGGAAGUUAGGACUGGGCAGAGCUCAACACAGCGUGGCAAAGUGGCUGUGGCUAGACUGCCUCUCUGGAUUCCUCGUCACUCAGCAGGGCAUCUCUGAGAGAAAUGCC [U9C U47A]: 1.18; for UACGUAGGCGGUAUUCCCCUGAUAGUGCUAAGGGGGCCUGGAAGUUUGGACUGGGCAGAGCUCAACACAGCGUGGCAAAGUGGCUGUGGCUAGACUGCCUCUCUGGAUUCCUCGUCACUCAGCAGGGCAUCUCUGAGAGAAAUGCC [U9C U13A]: 1.11; for UACGUAGGCGGUCUUCCCCUGAUAGUGCUAAGGGGGCCUGGAAGUUUGGACUGGGCAGAGCUCAACACAGCGUGGCAAAGUGGCUGUGGCUAGACUGCCUCUCUGGAUUCCUCGUCACUCAGCAGGGCAUCUCUGAGAGAAAUGCC [U9C U13C]: 1.19. With UACGUAGGCGGUUUUCCCCUGAUAGUGCUAAGGGGGCCUGGAAGUUUGGACUGGGCAGAGCUCAACACAGCGUGGCAAAAUGGCUGUGGCUAGACUGCCUCUCUGGAUUCCUCGUCACUCAGCAGGGCAUCUCUGAGAGAAAUGCC [U9C G80A], the self-cleavage is 1.65. To UACGUAGGCGGUUUUCCCCGGAUAGUGCUAAGGGGGCCUGGAAGUUUGGACUGGGCAGAGCUCAACACAGCGUGGCAAAGUGGCUGUGGCUAGACUGCCUCUCUGGAUUCCUCGUCACUCAGCAGGGCAUCUCUGAGAGAAAUGCC [U9C U20G] belongs 1.16; to UACGUAGGCGGUUUUCCCCCGAUAGUGCUAAGGGGGCCUGGAAGUUUGGACUGGGCAGAGCUCAACACAGCGUGGCAAAGUGGCUGUGGCUAGACUGCCUCUCUGGAUUCCUCGUCACUCAGCAGGGCAUCUCUGAGAGAAAUGCC [U9C U20C], 1.05; to UACGUAGGCGGUUUUCCCCUGAUAGUGCUAAGGGGGCCUGGAAGUUUGGACUGGGCAGAGCUCAACACAGCGUGGCAAAGUGGCUGUGGCUAGACUGCCUCUCUAGAUUCCUCGUCACUCAGCAGGGCAUCUCUGAGAGAAAUGCC [U9C G105A], 1.47. To UACGUAGGCGGUUUUCCCCUGAUAGUGCUAAGGGGGCCUGGAAGUUUGGACGGGGCAGAGCUCAACACAGCGUGGCAAAGUGGCUGUGGCUAGACUGCCUCUCUGGAUUCCUCGUCACUCAGCAGGGCAUCUCUGAGAGAAAUGCC [U9C U52G] belongs 1.69. Consider UACGUAGGCGGUUUUCCCCUGAUAGUGCUAAGGGGGCCUGGAAGUUUGGACUGGGCAGAGCCCAACACAGCGUGGCAAAGUGGCUGUGGCUAGACUGCCUCUCUGGAUUCCUCGUCACUCAGCAGGGCAUCUCUGAGAGAAAUGCC [U9C U62C], for which the self-cleavage is 0.18. To UACGUAGGCGGUUCUCCCCUGAUAGUGCUAAGGGGGCCUGGAAGUUUGGACUGGGCAGAGCUCAACACAGCGUGGCAAAGUGGCUGUGGCUAGACUGCCUCUCUGGAUUCCUCGUCACUCAGCAGGGCAUCUCUGAGAGAAAUGCC [U9C U14C] belongs 1.18. In the case of UACGUAGGCGGUUUUCCCCUGAUAGUGCUAAGGGGGCCUGGAAGUUUGGACUGGGCAGAGCUCAACACAGCGUGGCAAAGUGGCUGUGGCUAGACUGCCUCUCUGGAUUCCUCGUCACUCACCAGGGCAUCUCUGAGAGAAAUGCC [U9C G122C], the self-cleavage was 0. Regarding UACGUAGGCGGUUUUCCCCUGAUAGUGCUAAGGGGGCCUGGAAGUUUGGACUGGGCAGAGCUCAACACAGCGUGGCAAAGUGGCUGUGGCUAGACUGCCUCUCUGGAUUCCUCGUCACUCAGCAGGGCAUCUCUGAGAAAAAUGCC [U9C G139A], the self-cleavage came out at 1.09. On to UACGUAGGCGGUUUUCCCCUGAUAGUGCCAAGGGGGCCUGGAAGUUUGGACUGGGCAGAGCUCAACACAGCGUGGCAAAGUGGCUGUGGCUAGACUGCCUCUCUGGAUUCCUCGUCACUCAGCAGGGCAUCUCUGAGAGAAAUGCC [U9C U29C], for which the self-cleavage amounted to 1.72. The same measure for UACGUAGGCGGUUUUCCCCUGAUAGUGCUAAGGGGGCCUGGAAGUUUGGACUGGGCAGAGCUCAACACAGCGUGGCAAAGUGGCUGUGGCUAGACUGCCUCUCUGGAUUCCUCAUCACUCAGCAGGGCAUCUCUGAGAGAAAUGCC [U9C G114A]: 1.42; for UACGUAGGCGGUUUUCCCCUGAUAGUGCUAAGGGGGCCUGGAAGUUUGGACUGGGCAGAGCUCAACACAGCGUGGCAAAGUGGCUAUGGCUAGACUGCCUCUCUGGAUUCCUCGUCACUCAGCAGGGCAUCUCUGAGAGAAAUGCC [U9C G86A]: 0.16. To UACGUAGGCGGUUUUCCCCUGAUAGAGCUAAGGGGGCCUGGAAGUUUGGACUGGGCAGAGCUCAACACAGCGUGGCAAAGUGGCUGUGGCUAGACUGCCUCUCUGGAUUCCUCGUCACUCAGCAGGGCAUCUCUGAGAGAAAUGCC [U9C U26A] belongs 1.14.

For UACGUAGGCGGUUUUCCCCUGAUAGUGCUAAGGGGGCCUGGAAGUUUGGACUGGGCAGAGCUCAACACAGCGUGGCAAAGUGUCUGUGGCUAGACUGCCUCUCUGGAUUCCUCGUCACUCAGCAGGGCAUCUCUGAGAGAAAUGCC [U9C G83U], the self-cleavage turned out to be 0.94.

With UACGUAGGCGGUUUUCCCCUGAUAGUGCUAAGGGGGCCUGGAAGUUUGGACUGGGCAGAGCUCAACACAGCGUGGCAAAGUGGCUGUGGCUAGACUGCCCCUCUGGAUUCCUCGUCACUCAGCAGGGCAUCUCUGAGAGAAAUGCC [U9C U100C], the self-cleavage is 1.51. To UACGUAGGCGGUUUUCCCCUGAUAGUGCUAAGGGGGCCUGGAAGUUUGGACUGGGCAGAGCUCAACACAGCGUGGCAAAGUGGCUGUGGCUAGACUGCCACUCUGGAUUCCUCGUCACUCAGCAGGGCAUCUCUGAGAGAAAUGCC [U9C U100A] belongs 1.41; to UACGUAGGCGGUUUUCCCCUGAUAGUGCUAAGGGGGCCUGGAAGUUUGGACUGGGCAGAGCUCAACACAGCGUGGCAAAGUGGCUGUGGCUAGACUGCCUCUCUGGACUCCUCGUCACUCAGCAGGGCAUCUCUGAGAGAAAUGCC [U9C U108C], 1.54; to UACGUAGGCGGUUUUCCCCUGAUAGUGCUAAGGGGGCCUGGAAGUUUGGACUGGGCAGAGCUCAACACAGCGUGGCAAAGUGGCUGUGGCUAGACUGCCUCUCAGGAUUCCUCGUCACUCAGCAGGGCAUCUCUGAGAGAAAUGCC [U9C U104A], 1.4. The same measure for UACGUAGGCGGUUUUCCCCUGAAAGUGCUAAGGGGGCCUGGAAGUUUGGACUGGGCAGAGCUCAACACAGCGUGGCAAAGUGGCUGUGGCUAGACUGCCUCUCUGGAUUCCUCGUCACUCAGCAGGGCAUCUCUGAGAGAAAUGCC [U9C U23A]: 1.22. To UACGUAGGCGGUUUUCCCCUGAUAGUGCUAAGGGGGCCUGGAAGUUUGGACUGGGCAGAGCUCAACACAGCGUGGCAAAGUGGCUGUGGCUAGACUGCCUCUCUGGAUUCCUCGUCACUCAGCAGGUCAUCUCUGAGAGAAAUGCC [U9C G127U] belongs 1.45.

For the variant UACGUAGGCGGUUUUCCCCUGAUAGUGCUAAGGGGGCCUGGAAGUUUGGACUGGGCAGAGCUCAACACAGCGUGGCAAAGUGGCAGUGGCUAGACUGCCUCUCUGGAUUCCUCGUCACUCAGCAGGGCAUCUCUGAGAGAAAUGCC [U9C U85A], the self-cleavage turned out to be 0.17. The same measure for UACGUAGGCGGUUUUCCCCUGAUAGUGCUAAGGGGGCCUGGAAGUUUGGACUGGGCAGAGCUCAACACAGCGUGGCAAAGUGGCCGUGGCUAGACUGCCUCUCUGGAUUCCUCGUCACUCAGCAGGGCAUCUCUGAGAGAAAUGCC [U9C U85C]: 0.3; for UACGUAGGCGGUUUACCCCUGAUAGUGCUAAGGGGGCCUGGAAGUUUGGACUGGGCAGAGCUCAACACAGCGUGGCAAAGUGGCUGUGGCUAGACUGCCUCUCUGGAUUCCUCGUCACUCAGCAGGGCAUCUCUGAGAGAAAUGCC [U9C U15A]: 0.5.

With UACGUAGGCGGUUUGCCCCUGAUAGUGCUAAGGGGGCCUGGAAGUUUGGACUGGGCAGAGCUCAACACAGCGUGGCAAAGUGGCUGUGGCUAGACUGCCUCUCUGGAUUCCUCGUCACUCAGCAGGGCAUCUCUGAGAGAAAUGCC [U9C U15G], the self-cleavage was determined as 1.09.

For UACGUAGGCGGUUUCCCCCUGAUAGUGCUAAGGGGGCCUGGAAGUUUGGACUGGGCAGAGCUCAACACAGCGUGGCAAAGUGGCUGUGGCUAGACUGCCUCUCUGGAUUCCUCGUCACUCAGCAGGGCAUCUCUGAGAGAAAUGCC [U9C U15C], the self-cleavage turned out to be 1.28. In the case of UACGUAGGCGGUUUUCCCCUGAUAGUGCUAAGGGGGCCUGGAAGUUUGGACUGGGCAGAGCUCAACACAGCGCGGCAAAGUGGCUGUGGCUAGACUGCCUCUCUGGAUUCCUCGUCACUCAGCAGGGCAUCUCUGAGAGAAAUGCC [U9C U73C], the self-cleavage is 1.27.

In the case of UACGUAGGCGGUUUUCCCCUGAUAGUGCUAAGGGGGCCUGGAAGUUUGGACUGGGCAGAGCUCAACACAGCGAGGCAAAGUGGCUGUGGCUAGACUGCCUCUCUGGAUUCCUCGUCACUCAGCAGGGCAUCUCUGAGAGAAAUGCC [U9C U73A], the self-cleavage worked out at 1.58.
